From PMC7948952, “Structural basis for multifunctional roles of human Ints3 C-terminal domain” (The Journal of Biological Chemistry, 2020) come the findings set out here.

Substitutions are numbered along the chain they refer to. Numbers in names are those of the source.

Data set [1] concerns the molecule itself. As to the kind of experiment: cross-linking; glutaraldehyde, final concentration 0.075%, SDS-PAGE; negative control with 1% SDS and 20 mM DTT added before the reaction.
Data set [2] deals with the molecule itself. Briefly: SEC; Superdex 200 Increase 10/300 Gl, 100 μl of approximately 2 mg/ml, 0.5 ml/min; wild-type and mutant Ints3-555-976.
The target of data set [3] is T1, GST-tagged Ints3-555-976 R863A/D869A (human, UniProt Q68E01-2 555-976, R863A | D869A).
T1 construct: numbers count on: UniProtKB Q68E01-2, 1042 amino acids; source: E. coli BL21, coexpressed with MBP-Ints6-807-887; also captured on glutathione Sepharose from lysate; not shown: GST, N-terminal, kept
Briefly: pull-down; coexpression in E. coli of GST-tagged Ints3 constructs (pGEX-6p-1) and MBP-Ints6-807-887 (pRSFDuet-1), GST or MBP pull-down ('coexpression and reverse pull-down'). As to conditions: partners not purified.

The target in data set [4] is T2, GST-tagged Ints3-555-976, wild type (human, UniProt Q68E01-2 555-976).
T2 construct: numbers count on: UniProtKB Q68E01-2, 1042 amino acids; also called GST-Ints3; GST-tagged Ints3 C-terminal domain; source: E. coli BL21, captured on glutathione Sepharose from lysate; also coexpressed with MBP-Ints6-807-887; not shown: GST, N-terminal, kept
As to the kind of experiment: pull-down; in vitro GST pull-down: GST-Ints3 captured on glutathione Sepharose 4B from BL21 lysates, incubated with about 15 μg purified MBP-Ints6-807-887; 20 mM Tris-HCl pH 8.0, 300 mM NaCl, 0.1% Nonidet P-40, 5% glycerol, 2 mM DTT, 2 h at 4 °C; anti-MBP blot. As to conditions: both partners purified.

A further data set concerns the target T3, GST-tagged Ints3-555-899 (human, UniProt Q68E01-2 555-899).
T3 construct: numbers count on: UniProtKB Q68E01-2, 1042 amino acids; source: E. coli BL21, captured on glutathione Sepharose from lysate
Described as above. The note with it: both partners purified.

Data set [5] addresses Ints3 C-terminal domain (Ints3-555-976) WT (human, UniProt Q68E01-2 555-976). As to the kind of experiment: EMSA; roughly 100% bound at 25 uM protein; 20 mM Hepes pH 7.4, 100 mM NaCl, 1 mM MgCl2, 1 mg/ml BSA, 2 mM DTT, 5% glycerol; on ice 30 min; 7.5 nM probe; native 5% PAGE in 1X TBE. As to conditions: protein: recombinant; tags: His or GST (GST cleaved); chain copies: 2; label: 5' 32P; single strand. On the technique in general: In EMSA bound probe runs differently from free probe, usually more slowly.

B1: Ints3-555-976 (human Ints3 C-terminal domain), wild type (domain or fragment, UniProt Q68E01-2 555-976, looked up)
chain: PIKETVVEEPVDITPYLDQLDESLRDKVLQLQKGSDTEAQCEVMQEIVDQVLEEDFDSEQLSVLASCLQELFKAHFRGEVLPEEITEESLEESVGKPLYLIFRNLCQMQEDNSSFSLLLDLLSELYQKQPKIGYHLLYYLRASKAAAGKMNLYESFAQATQLGDLHTCLMMDMKACQEDDVRLLCHLTPSIYTEFPDETLRSGELLNMIVAVIDSAQLQELVCHVMMGNLVMFRKDSVLNILIQSLDWETFEQYCAWQLFLAHNIPLETIIPILQHLKYKEHPEALSCLLLQLRREKPSEEMVKMVLSRPCHPDDQFTTSILRHWCMKHDELLAEHIKSLLIKNNSLPRKRQSLRSSSSKLAQLTLEQILEHLDNLRLNLTNTKQNFFSQTPILQALQHVQASCDEAHKMKFSDLFSLAEEY
notes: numbers count on: UniProtKB Q68E01-2, 1042 amino acids; For crystallisation a trace of trypsin (1:1000 w/w) was added; it cuts after K557 and after K914, and both fragments stay in the crystal; SeMet protein was used for phasing; also called HR1-11; Band I; not shown: GST, N-terminal, cleaved
As to B1, in data set [1], the “stoichiometry N” value came out at 2.

B2: Ints3-555-976 R788E/K789E (domain or fragment, human, UniProt Q68E01-2 555-976, looked up)
chain: B1 chain with R234E, K235E
notes: numbers count on: UniProtKB Q68E01-2, 1042 amino acids; source: purified to homogeneity (gel filtration)
Turning to B2, the “stoichiometry N” value in data set [2] was 2.

B3: Ints3-555-976 K851E (domain or fragment, human, UniProt Q68E01-2 555-976, looked up)
chain: B1 chain with K297E
notes: numbers count on: UniProtKB Q68E01-2, 1042 amino acids; also called K851 E charge mutant; source: purified to homogeneity (gel filtration)
In the case of B3, in data set [2], the “stoichiometry N” value was 2.

B4: MBP-Ints6-807-887 (domain or fragment, UniProt Q9UL03 807-887, looked up)
chain: EVNTELKAQIMKEIRKPGRKYERIFTLLKHVQGSLQTRLIFLQNVIKEASRFKKRMLIEQLENFLDEIHRRANQINHINSN
notes: Integrator complex subunit 6 (Ints6, DDX26a), residues 807-887; cDNA from DNAsu; Made in a modified pMal-c2X vector: an AAAEF linker and no protease site stand between MBP and Ints6-807-887; the MBP-Ints6-807-887 region was then cloned into pRSFDuet-1; also called MBP-tagged Ints6-807-887; source: E. coli BL21-CodonPlus (DE3)-RIPL, purified (amylose resin, HiTrap Q); also coexpressed with …
With B4, the binding result (in data set [3]; in data set [4]; with GST-tagged Ints3-555-899) was “binds” in each case.
In the case of UUUUUUUUUUUUUUUUUUUUUUUUUUUUUU (ssRNA) [rU30], the binding result in data set [5] is listed as “binds”.

A word on the stoichiometry N: it is a count of units in the complex or per binding partner.
